Test results taken from PMC3568146, “Very Late Antigen-4 (α4β1 Integrin) Targeted PET Imaging of Multiple Myeloma” (PLoS ONE, 2013).
Entries after “also recorded” stand apart in the source; their conditions may differ. Like-named read-outs stand apart in the source and are kept apart here.

Key:
[1] = test system: RPMI-8226 cells; experiment: In vitro cell uptake assay, RPMI-8226 cells; assay type: cell-based, human; details: 0.1 nM tracer, 37°C, 60 min, 1 mM Mn2+, ~200-fold excess LLP2A, P<0.0001
Procedure: (§1) Cell uptake assays were performed in murine 5TGM1 and human RPMI-8226 myeloma cells using ^64Cu-CB-TE1A1P-LLP2A to determine the sum of cell internalized and surface-bound fractions. Cells were grown in Iscoves MDM until 60−75% confluent, harvested by mechanical dissociation, and re-suspended in the binding medium (phosphate buffered saline [PBS], 0.1% bovine serum albumin [BSA] and 1 mM Mn^2+) in 1.5 mL microfuge tubes. A solution of ^64Cu-CB-TE1A1P-LLP2A (0.1 nM) was added to the cell suspension. The samples were incubated for 60 min in a cell incubator (37°C, 5% CO2). To determine the in vitro VLA-4 binding specificity of ^64Cu-CB-TE1A1P-LLP2A, samples were co-incubated with ∼200-fold excess of the unlabeled ligand, LLP2A. After incubation, the samples were centrifuged at 1,500 rpm for 5 min, and the radioactive medium was removed. Cell pellets were rinsed with ice cold binding buffer (500 µL) and centrifuged at 1,500 rpm for 3 min (2 X). The radioactivity in cell pellets was measured in a well counter (Packard II gamma counter).
Binding of ^64Cu-CB-TE1A1P-LLP2A was evaluated in human MM cell line RPMI-8226 in vitro.

[2] = test system: 5TGM1 tumors; experiment: Small animal PET/CT imaging in KaLwRij mice bearing 5TGM1 tumors; assay type: in vivo, mouse; details: 2 h post injection
Procedure: (§2) KaLwRij mice (from Dr. Claire M. Edwards, Vanderbilt University Medical Center Cancer Biology, Nashville, TN) were housed in ventilated cage racks and allowed food and water. 5TGM1 cells in log phase growth were prepared for injection by precipitation in a centrifuge followed by a wash step with sterile endotoxin-free PBS. Finally, the cells were re-suspended in endotoxin-free PBS at a concentration of 1×10^6 cells/mL and injected with or without matrigel, respectively, in the nape of the neck subcutaneously (s.c.) or intraperitoneally (i.p.) in a 100 µL volume in 3–5 week old mice. The tumors were allowed to grow for an average of 10 d.
(§3) Prior to small animal PET/CT imaging, mice were injected intravenously (tail vein) with ^64Cu-CB-TE1A1P-LLP2A (0.9 MBq (SA: 37 MBq/µg)). At 2 h post injection, mice were anaesthetized with 1–2% isoflurane and imaged with small animal PET (Focus 220 or Inveon (Siemens Medical Solutions, Knoxville,TN)), while the CT images were acquired with the Inveon. Static images were collected for 30 min and co-registered using the Inveon Research Workstation (IRW) software (Siemens Medical Solutions, Knoxville,TN). PET images were re-constructed with the maximum a posteriori (MAP) algorithm. The analysis of the small animal PET images was done using the IRW software. Regions of interest (ROI) were selected from PET images using CT anatomical guidelines and the activity associated with them was measured with IRW software. Maximum standard uptake values (SUVs) for both experiments were calculated using SUV = ([nCi/mL]x[animal weight (g)]/[injected dose (nCi)]). A set of mice was also imaged at 24 h post injection.
(§4) To test the ability of ^64Cu-CB-TE1A1P-LLP2A to image MM, small animal PET/CT imaging was conducted in KaLwRij mice bearing 5TGM1 murine myeloma tumors. The following i.p. and s.c. 5TGM1 models were used for the proof-of-principle imaging studies: 1) a non-matrigel assisted s.c. (plasmacytoma) tumor in the flank of the mouse (Figure 4B); 2) a matrigel assisted s.c. tumor in the flank of the mouse (Figure 4C); and 3) tumor cells injected in the peritoneal (i.p.) cavity (Figure 4D). Figure 4 contains […] (B-D) representative maximum intensity projection (MIP) small animal PET images using ^64Cu-CB-TE1A1P-LLP2A (0.9 MBq, 0.05 µg, 27 pmol, SA: 37 MBq/µg) at 2 h post injection in the various models compared to a non-tumor-bearing control mouse (Figure 4A). […] The SUV of the tumor shown in Figure 4D was not determined due to the large tumor size and overlap with the spleen and bladder. The heterogeneous distribution of the imaging agent in Figure 4D likely corresponds with the heterogeneity of the tumor mass. The uptake of ^64Cu-CB-TE1A1P-LLP2A in i.p. tumors was determined to be 14.9±2.6%ID/g by post PET biodistribution (2 h post injection). […] We are currently investigating the imaging of myeloma induced spleen pathology (splenomegaly) in orthotopic (i.v.) 5TGM1 mouse models of MM.

[3] = as above; assay type: in vivo, mouse; details: KaLwRij, mouse, iv, total radioactivity
Procedure: as §2, §3, §4

[4] = test system: 5TGM1 tumors; experiment: Tissue biodistribution in 5TGM1 tumor-bearing KaLwRij mice; assay type: in vivo, mouse; details: 2 h, co-administered ~200-fold excess cold LLP2A, p<0.05, N = 4
Procedure: as §2
(§5) 5TGM1 tumor bearing mice were sacrificed at 2 or 24 h after the injection of the radiopharmaceutical, ^64Cu-CB-TE1A1P-LLP2A. Blood, marrow, fat, heart, stomach, intestines, lungs, liver, spleen, kidneys, muscle, bone, pancreas, and tumor were harvested, weighed, and counted in the γ-counter. For the in vivo blocking studies, an additional group of mice was injected with the radiopharmaceutical premixed with ∼200-fold excess of LLP2A to serve as a blocking agent and sacrificed at the respective time point. The percent injected dose per gram of tissue (%ID/g) was determined by decay correction of the radiopharmaceutical for each sample normalized to a standard of known weight, which was representative of the injected dose.
(§6) Figure 3 Tissue biodistribution of ^64Cu-CB-TE1A1P-LLP2A in 5TGM1 s.c. tumor mice. Biodistribution of ^64Cu-CB-TE1A1P-LLP2A in 5TGM1 s.c. tumor mice (black bars). The open bars represent biodistribution in the presence of non-radioactive blocking agent (∼ 200 fold excess LLP2A). Mice were injected with ^64Cu-CB-TE1A1P-LLP2A (0.01 µg, 0.2 MBq, SA: 37 MBq/µg) and sacrificed at 2 h post injection. N = 4 mice/group.

[5] = as above; assay type: in vivo, mouse; details: mouse, iv, 0.01 ug, total radioactivity, 2 h post injection, s.c. 5TGM1 tumor KaLwRij mice, mean±SD, N = 4
Procedure: as §2, §5, §6

[6] = molecular target: T1, VLA-4 (α4β1 integrin) on 5TGM1 murine myeloma cells (Mus musculus, UniProt P09055+Q00651); experiment: In vitro saturation binding assay on 5TGM1 whole cells; details: tracer 0.5–15.5 nM, 2 h at 4°C, 1 mM Mn2+, N = 3
T1 construct: was incubated with ∼250,000 5TGM1 (∼ 0.41 mg protein) whole cells; endogenous in cells; host or cells: 5TGM1 murine myeloma cells (whole cells)
Procedure: For saturation binding experiments, ^64Cu-CB-TE1A1P-LLP2A (0.5–15.5 nM) was incubated with ∼250,000 5TGM1 (∼ 0.41 mg protein) whole cells in 1.5 mL microfuge tubes for 2 h at 4°C in a total volume of 500 µL of binding medium (phosphate buffered saline [PBS], 0.1% bovine serum albumin [BSA] and 1 mM Mn^2+). The reaction tubes were put on a slow moving rotor during the 4°C incubation. After the incubation, samples were centrifuged at 1,500 rpm for 5 min, reaction buffer was removed by vacuum aspiration and the cells were washed two times with ice cold PBS. Non-specific binding was determined by conducting the assay in the presence of an excess (∼200 fold) unlabeled LLP2A. The radioactivity in the cell pellets was measured in a well counter (Packard II gamma counter). The specific binding was obtained by the subtraction of non-specific binding from total binding. The dissociation constant (Kd) and receptor density (Bmax) were estimated from the non-linear fitting of the specific binding versus the concentration of ^64Cu-CB-TE1A1P-LLP2A using Prism software (GraphPad, San Diego, CA).
The in vitro binding affinity of ^64Cu-CB-TE1A1P-LLP2A was investigated by determining the equilibrium dissociation constant (Kd) and the maximum specific binding (Bmax) of the radiolabeled conjugate to 5TGM1 cells in saturation binding assays. […]

[7] = test system: 5TGM1 cells; experiment: In vitro cell uptake assay, 5TGM1 cells; assay type: cell-based, mouse
Procedure: as §1

T1 sequence (Q00651 41-1039): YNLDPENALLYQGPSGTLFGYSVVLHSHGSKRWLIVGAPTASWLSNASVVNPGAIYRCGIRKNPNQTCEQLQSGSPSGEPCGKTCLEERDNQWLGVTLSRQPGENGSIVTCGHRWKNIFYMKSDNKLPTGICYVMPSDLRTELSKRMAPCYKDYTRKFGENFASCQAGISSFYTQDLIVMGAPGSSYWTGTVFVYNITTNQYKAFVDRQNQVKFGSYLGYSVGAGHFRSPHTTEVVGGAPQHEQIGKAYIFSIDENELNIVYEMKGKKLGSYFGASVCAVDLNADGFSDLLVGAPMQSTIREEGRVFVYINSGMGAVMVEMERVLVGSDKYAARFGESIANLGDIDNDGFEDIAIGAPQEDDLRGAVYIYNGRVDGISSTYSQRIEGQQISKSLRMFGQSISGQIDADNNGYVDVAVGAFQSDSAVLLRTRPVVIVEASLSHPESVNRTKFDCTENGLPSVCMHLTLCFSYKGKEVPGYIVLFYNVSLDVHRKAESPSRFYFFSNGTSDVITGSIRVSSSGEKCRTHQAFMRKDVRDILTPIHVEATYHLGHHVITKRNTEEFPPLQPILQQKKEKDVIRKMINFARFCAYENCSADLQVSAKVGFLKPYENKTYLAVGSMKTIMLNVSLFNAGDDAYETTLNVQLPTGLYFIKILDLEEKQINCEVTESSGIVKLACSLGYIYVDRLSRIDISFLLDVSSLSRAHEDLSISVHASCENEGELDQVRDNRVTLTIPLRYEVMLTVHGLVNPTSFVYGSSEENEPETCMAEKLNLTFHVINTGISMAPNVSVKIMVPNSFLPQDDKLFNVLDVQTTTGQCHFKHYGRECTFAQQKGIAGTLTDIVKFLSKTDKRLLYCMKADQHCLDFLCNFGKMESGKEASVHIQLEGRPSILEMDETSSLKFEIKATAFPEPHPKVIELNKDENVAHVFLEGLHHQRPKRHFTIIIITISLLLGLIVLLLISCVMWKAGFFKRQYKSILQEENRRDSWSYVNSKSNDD
T1 sequence (P09055 21-798): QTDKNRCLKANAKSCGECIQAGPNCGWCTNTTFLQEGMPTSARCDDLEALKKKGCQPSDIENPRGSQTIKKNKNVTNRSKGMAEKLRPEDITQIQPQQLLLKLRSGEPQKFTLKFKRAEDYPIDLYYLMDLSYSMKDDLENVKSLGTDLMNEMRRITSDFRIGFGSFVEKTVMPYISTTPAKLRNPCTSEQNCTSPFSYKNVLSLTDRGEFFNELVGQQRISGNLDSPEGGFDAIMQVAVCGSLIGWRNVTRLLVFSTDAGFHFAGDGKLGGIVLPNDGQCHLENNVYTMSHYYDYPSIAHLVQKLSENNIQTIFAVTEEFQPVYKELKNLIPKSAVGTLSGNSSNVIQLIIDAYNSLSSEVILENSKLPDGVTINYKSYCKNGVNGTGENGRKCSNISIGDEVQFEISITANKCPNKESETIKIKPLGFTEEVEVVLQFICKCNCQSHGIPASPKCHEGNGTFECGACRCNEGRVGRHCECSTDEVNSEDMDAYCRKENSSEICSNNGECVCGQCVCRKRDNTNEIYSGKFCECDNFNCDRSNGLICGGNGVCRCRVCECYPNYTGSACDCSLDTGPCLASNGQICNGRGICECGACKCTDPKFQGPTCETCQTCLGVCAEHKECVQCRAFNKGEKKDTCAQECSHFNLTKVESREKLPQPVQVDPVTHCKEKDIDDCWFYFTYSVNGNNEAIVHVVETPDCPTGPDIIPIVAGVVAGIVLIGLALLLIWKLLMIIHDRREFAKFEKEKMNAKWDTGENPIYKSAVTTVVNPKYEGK

Which “Cell uptake in RPMI-8226 cells, with vs. without excess LLP2A” value [1] does the source give for Cc1ccccc1NC(=O)Nc1ccc(CC(=O)N[C@@H](CCCCNC(=O)/C=C/c2cccnc2)C(=O)N[C@@H](CCCC(=O)O)C(=O)NC2(C(=O)NCCOCCOCCNC(=O)CCC(=O)NCCOCCOCCNC(=O)CCC(=O)N[C@@H](CCCCNC(=O)CN3CCCN4CCN(CCCN(CP(=O)(O)O)CC4)CC3)C(N)=O)CCCCC2)cc1 [64Cu-CB-TE1A1P-LLP2A, metal not drawn] here?
Its value is “significantly reduced; also recorded: significantly blocked”.

And the “Spleen SUV, non-tumor bearing mouse” value ([2]; non-tumor KaLwRij control mouse)?
The value was 2.2.

And the “Reduction in tumor SUV in the presence of blocking agent” value ([2]; ~200-fold excess LLP2A, P<0.05)?
Its value is 3 fold.

What about the “Tumor SUV, early stage non-palpable s.c. 5TGM1 tumor without matrigel” value ([2]; representative mouse, Figure 4B) of the same compound?
Its value is 2.24.

And the “Tumor SUV, matrigel assisted s.c. 5TGM1 tumor” value ([2]; representative mouse, Figure 4C)?
The value was 6.2.

What about the SUV at 2 h ([3]; spleen, 0.05 ug, 2 h post injection, 5TGM1 tumor bearing mice, read-out: Spleen SUV, tumor bearing mice) of the same compound?
The SUV at 2 h was 3.3 SUV.

And the tissue to tissue ratio at 2 h ([3]; tumor and muscle, 0.9 MBq, 2 h post injection, calculated from MIP image SUVs)?
The tissue to tissue ratio at 2 h was 28 ± 6.

What about the tissue to tissue ratio at 24 h ([3]; tumor and muscle, 0.9 MBq, 24 h post injection, calculated from MIP image SUVs) of the same compound?
Its tissue to tissue ratio at 24 h is 161 ± 41.

And the SUV at 2 h ([3]; tumor, 0.05 ug, 2 h post injection, 0.9 MBq, 0.05 µg, 27 pmol, 5TGM1 tumors, mean±SD, N = 4, read-out: Tumor SUV (averaged maximum SUV from MIP PET images), no block)?
Its SUV at 2 h is 6.2 ± 1.1 SUV.

What about the SUV at 2 h ([3]; tumor, 2 h post injection, ~200-fold excess LLP2A, mean±SD, N = 4, P<0.05, read-out: Tumor SUV in the presence of blocking agent) of the same compound?
Its SUV at 2 h is 2.3 ± 0.4 SUV.

What about the “Uptake in tumor, spleen and bone in the presence of blocking agent” value [4] of the same compound?
The value was “significantly reduced”.

What about the tissue uptake at 2 h ([5]; i.v., 0.01 µg, 0.2 MBq, read-out: Tumor uptake (s.c. 5TGM1)) of the same compound?
The tissue uptake at 2 h was 12 ± 4.5 %ID/g.

What about the tissue uptake at 2 h ([5]; spleen, read-out: Spleen uptake) of the same compound?
The tissue uptake at 2 h was 8.8 ± 1 %ID/g.

What about the “Bmax (maximum specific binding, receptor density)” value [6] of the same compound?
Its value is 136 pmol/mg.

What about the “Cell uptake (internalized + surface-bound), block vs. non-block” value ([7]; 0.1 nM tracer, 60 min, 37°C, PBS/0.1% BSA/1 mM Mn2+, with and without ~200-fold excess LLP2A, P<0.0001) of the same compound?
The value was “receptor specific uptake; also recorded: significantly different; also recorded: significantly reduced”.

And the “Cell uptake in the absence of receptor activating cation Mn2+” value ([7]; without Mn2+, data not shown)?
The value was “much lower binding”.
